These results are taken from patent publication US20260150817A1 (LEVERAGEN, published 2026).

Where two headings read alike, the source gives them in different places.

Assay [1] concerns the target T1, SARS-Cov2 Spike Active Trimer SAT (R&D Systems; Catalog No. 10549-CV) (SARS-CoV-2, UniProt P0DTC2 16-1211).
T1 construct: also called SARS-COV2 Spike Active Trimer protein; recombinant SAT protein
As to the kind of experiment: ELISA, serially diluted purified Nb-Fc against SAT antigen.

In assay [2] the target is T1, SARS-Cov2 Spike Active Trimer SAT (R&D …). As to the kind of experiment: SPR (Carterra).
The target is the same in assay [3].
For assay [4] the target is unchanged. The source holds these as a separate data set.

Broadly, the EC50 is the concentration at which the effect is half-maximal. A word on the Kd: it is the concentration at which binding is half-saturated. Broadly, the koff is the first-order rate constant of dissociation. A low value points to slow dissociation. As usually defined, the kon is a measure of how fast the partners come together.

B1: M2S521_623 Nb-Fc (Fc fusion)
chain: EVQLQQSGPELVKPGASVKISCKASGYTFTDYYMKWEKQSHGKSLEWIGDINPNNGGTRYNQKFRGKATLTVDKSSSTAYMELRSLTSEDSAVYYCARLEDDYYGYAVDYWGQGTSVTVSS
notes: also called LVGN-S521623
B1 gave an EC50 in assay [1] of 0.054 nM.

B2: M2S521_378 Nb-Fc (Fc fusion)
chain: EVQLQQSGPELVKPGASVKISCKASGYTFTDYYMKWVKQSHGKSLEWIGDINPKNGGTNYNQKFKDKATLTVDKSSSTAYMELRSLTSEDSAVYYCARLEDGYYGYAIDYWSQGTSVTVSS
notes: also called LVGN-S521378
Consider B2, for which, in assay [1], the concentration for a half-maximal effect (EC50) came out at 0.081 nM.

B3: MS521_35 Nb-Fc (Fc fusion)
chain: EVQLQQSGPELVKPGASVKISCKASGYTFTDYYMKWVKQRHGQSLEWIGNINPTNGDTNYSQNFKGKATLTVDKSSTTAYMELRSLTSEDSAVYYCARLEDGYYGYAVDYWGQGTSVTVSS
notes: also called LVGN-S52135
In assay [2], B3 yielded an equilibrium dissociation constant (Kd) of 5.3 nM. For the same molecule, the dissociation constant Kd in assay [3] was 9.09 nM. For the same molecule, in assay [1], the half-maximal effective concentration (EC50) amounted to 0.024 nM. In addition, in assay [4], the off-rate constant (koff) was 0.000685 s⁻¹ and the on-rate constant (kon) was 75300 M⁻¹ s⁻¹.

B4: M2S521_193 Nb-Fc (Fc fusion)
chain: EVQLQQSGPELVKPGASVKISCKASGYTFTDYYMKWVKQSHGKSLEWIGDINPNNGGARYNQKFKGRATLTVDKSSSTAYMELRSLTSEDSAVYYCSRLEDGYYGYAVDYWGQGTSVTVSS
notes: also called LVGN-S521193
In the case of B4, a half-maximal response in assay [1] (EC50) required 0.085 nM.

B5: M2S521_72 Nb-Fc (Fc fusion)
chain: EVQLQQSGPELVKPGASVKISCKASGYTFTDYYMKWAKQSHGKSLEWIGHINPVNGDTSYNQKFKGKATLTVDKSSSTVYMELRSLTSEDSAVYYCARLEDGYYGYTMDYWGQGTSVTVSS
notes: also called LVGN-S52172
Take B5: a half-maximal effect in assay [1] (EC50) was put at 0.063 nM.

B6: M320_5 Nb-Fc (Fc fusion)
chain: EVQLQQSGPELVKPGASVKMSCKASGYTFTDYYIKWEKQSHGKSLEWIGDINPKNGETFYNQQFKGKATLTVDKSSSTAYMQLNSLTSEDSAVYYCARKEYGDYGYAVDYWGQGTSVTVSS
notes: also called LVGN-S3205
Consider B6, for which, in assay [2], binding was characterised by a dissociation constant (Kd) of 3.17 nM. In assay [3], binding was characterised by a dissociation constant (Kd) of 1.21 nM. The same molecule came in with an EC50 in assay [1] of 0.024 nM. In assay [4], this molecule displayed a Kd of 1.06 nM, a koff of 0.000143 s⁻¹ and a kon of 135000 M⁻¹ s⁻¹.

B7: M2S320_377 Nb-Fc (Fc fusion)
chain: EVQLQQSGPELVKPGASVKMSCKASGYTFTDYYVKWKKQSHGKSLEWIGDINPNNGDTFYNQKFKDKATLTVDKSSSTAYMQLNSLTSEDSAVYYCARKEYGNFGYAVDYWGQGTSVTVSS
notes: also called LVGN-S320377
For the molecule B7, the concentration for a half-maximal effect (EC50) in assay [1] was determined as 0.097 nM.

B8: M2S320_75 Nb-Fc (Fc fusion)
chain: EVQLQQSGPELVKPGASVKMSCKASGYTFTDYYMKWLKQNHGKSLEWIGDINPNNGDTFYNQKFKGKATLTVDTSSSTAYMQLNSLTSEDSAVYYCARKEYGDYGYATDYWGQGTSVTVSS
notes: also called LVGN-S32075
B8 showed an EC50 in assay [1] of 0.068 nM.
